Reference: publication PMC10889554, “An Unusual Two-Domain Thyropin from Tick Saliva: NMR Solution Structure and Highly Selective Inhibition of Cysteine Cathepsins Modulated by Glycosaminoglycans” (International Journal of Molecular Sciences, 2024)

Legend:
Test in all cases: enzyme inhibition kinetics (fluorogenic peptide substrate activity assay); inhibitor preincubated with protease 15 min, 37 °C; IC50 from residual velocities, Ki by the Cheng-Prusoff equation; 50 mM sodium acetate pH 5.5, 0.1% polyethylene glycol 1500, 2.5 mM dithiothreitol (cathepsins L, K, V, B, F, C and papain; 50 mM NaCl for cathepsin C)
Conditions in all cases: both partners purified
[1] = target: T1, Carica papaya papain (Carica papaya, UniProt P00784 134-345)
T1 construct: source: bought: Merck
T1 sequence (looked up): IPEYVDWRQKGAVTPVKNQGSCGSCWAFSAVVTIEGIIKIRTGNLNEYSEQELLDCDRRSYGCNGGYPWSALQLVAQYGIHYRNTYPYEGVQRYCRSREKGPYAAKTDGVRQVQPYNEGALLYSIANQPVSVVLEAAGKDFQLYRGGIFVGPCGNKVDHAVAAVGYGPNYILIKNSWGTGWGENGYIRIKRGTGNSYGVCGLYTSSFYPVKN

[2] = target: T2, human cathepsin V (human, UniProt O60911 114-334)
T2 construct: source: Pichia pastoris expression system, as described previously [12,56,57]
T2 sequence (O60911 114-334): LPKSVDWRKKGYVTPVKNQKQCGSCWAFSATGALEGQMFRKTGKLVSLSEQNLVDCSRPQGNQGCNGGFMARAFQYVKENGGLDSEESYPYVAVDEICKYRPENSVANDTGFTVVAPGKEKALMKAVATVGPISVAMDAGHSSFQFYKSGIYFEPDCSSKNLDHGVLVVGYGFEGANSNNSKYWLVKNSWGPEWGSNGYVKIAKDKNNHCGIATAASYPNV

[3] = target: T3, human cathepsin K (human, UniProt P43235 115-329)
T3 construct: source: Pichia pastoris expression system, as described previously [12,56,57]
T3 sequence (looked up): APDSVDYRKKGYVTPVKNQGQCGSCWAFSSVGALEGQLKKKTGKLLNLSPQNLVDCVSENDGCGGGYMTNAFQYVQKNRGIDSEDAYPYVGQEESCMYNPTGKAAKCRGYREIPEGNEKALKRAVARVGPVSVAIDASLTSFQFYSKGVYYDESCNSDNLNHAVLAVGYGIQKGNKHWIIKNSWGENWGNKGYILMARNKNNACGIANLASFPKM

[4] = target: T4, human cathepsin L (human)
T4 construct: source: Pichia pastoris expression system, as described previously [12,56,57]

[5] = target: T5, human cathepsin F (human, UniProt Q9UBX1 271-484)
T5 construct: source: bought: Enzo Life Sciences
T5 sequence (looked up): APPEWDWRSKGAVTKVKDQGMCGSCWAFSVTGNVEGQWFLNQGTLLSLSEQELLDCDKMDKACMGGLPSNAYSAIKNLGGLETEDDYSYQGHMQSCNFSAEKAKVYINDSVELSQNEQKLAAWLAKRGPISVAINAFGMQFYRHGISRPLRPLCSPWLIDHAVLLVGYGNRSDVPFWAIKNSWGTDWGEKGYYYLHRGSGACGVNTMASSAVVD

B1: IrThy-Nd, recombinant N-terminal Tg1 domain of IrThy (domain or fragment)
chain: SNAASVPTRVANHGASRPLSDCEQRKQREERNTGPLAIHIECNPDGSYKPMQCFGNPDQPRRMCACYDQEYDQIKAPSRQLKSCK
- Ki [1]: 153 nM
- Ki [2]: 27.2 nM
- Ki [3]: 43.7 nM
- Ki [4]: 179 nM
- Ki [5]: 207 nM
